Data set [1] addresses T1, cce4228 protein (succinic semialdehyde dehydrogenase, SSADH) (Crocosphaera subtropica, UniProt B1WSJ7).
T1 construct: gene gabD; full ORF in pET-28a, N-terminal 6xHis kept, E. coli BL21(DE3), Ni-NTA; native ca. 109 kDa
T1 sequence (B1WSJ7 1-455): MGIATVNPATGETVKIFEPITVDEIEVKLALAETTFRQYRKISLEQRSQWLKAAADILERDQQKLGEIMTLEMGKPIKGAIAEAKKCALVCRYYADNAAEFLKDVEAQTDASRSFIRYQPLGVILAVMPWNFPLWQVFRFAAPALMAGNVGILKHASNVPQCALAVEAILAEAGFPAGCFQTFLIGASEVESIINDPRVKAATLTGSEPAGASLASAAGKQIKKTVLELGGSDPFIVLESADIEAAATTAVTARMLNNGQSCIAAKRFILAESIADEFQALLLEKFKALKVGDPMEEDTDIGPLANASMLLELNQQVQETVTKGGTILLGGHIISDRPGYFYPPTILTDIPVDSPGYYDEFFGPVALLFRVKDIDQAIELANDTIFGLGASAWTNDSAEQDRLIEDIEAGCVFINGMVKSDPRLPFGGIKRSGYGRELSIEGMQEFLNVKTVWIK
Description: initial velocity at […] nm. The format is biochemical. As to conditions: MgCl2, 50 mM CHES pH 9.0, 25°C, table marks wild-type data as from ref. 26, read-out: wild-type^e, cited from earlier work.

Data set [2] has as its target succinic semialdehyde dehydrogenase cce4228 protein from Cyanothece sp. ATCC51142 (wild-type, recombinant) (Cyanothece sp. ATCC51142). Description: SEC; size exclusion chromatography of purified recombinant cce4228 with standard protein ladders; native mass compared with the subunit mass.
For data set [3], the target named is T1, cce4228 protein (succinic semialdehyde dehydrogenase, SSADH). Description: initial velocity at […] nm, excess-substrate inhibition fit. The data set is classed as biochemical. The following applies: 0.5 mM NADP+, MgCl2, 50 mM CHES pH 9.0, 25°C; table marks wild-type data as from ref. 26; read-out: wild-type^e; cited from earlier work.
Substrate in data set [4]: O=CCCC(=O)O
The experiment in a line: purified protein. The format is biochemical, Crocosphaera subtropica. As to conditions: MgCl2, 50 mM CHES pH 9.0, 25°C.

Substrate in data set [5]: NC(=O)c1ccc[n+]([C@@H]2O[C@H](COP(=O)(O)OP(=O)(O)OC[C@H]3O[C@@H](n4cnc5c(N)ncnc54)[C@H](OP(=O)(O)O)[C@@H]3O)[C@@H](O)[C@H]2O)c1
Description: purified protein. The data set is classed as biochemical, Crocosphaera subtropica. As to conditions: 0.02 mM SSA, MgCl2, 50 mM CHES pH 9.0, 25°C, varied: cofactor.

Substrate in data set [6]: NC(=O)c1ccc[n+]([C@@H]2O[C@H](COP(=O)(O)OP(=O)(O)OC[C@H]3O[C@@H](n4cnc5c(N)ncnc54)[C@H](O)[C@@H]3O)[C@@H](O)[C@H]2O)c1
Description: purified protein. The format is biochemical, Crocosphaera subtropica. As to conditions: 0.02 mM SSA, MgCl2, 50 mM CHES pH 9.0, 25°C, varied: cofactor.

Where a chain is given by its changes, count along the chain named. Numbers in names are those of the source.

With `NC(=O)c1ccc[n+]([C@@H]2O[C@H](COP(=O)(O)OP(=O)(O)OC[C@H]3O[C@@H](n4cnc5c(N)ncnc54)[C@H](OP(=O)(O)O)[C@@H]3O)[C@@H](O)[C@H]2O)c1` [NADP^+], the Km in data set [1] (0.2 mM SSA) was 34 ± 2 µM.
The stoichiometry N is the number of molecules, sites or subunits per partner or assembly. Consider “succinic semialdehyde dehydrogenase cce4228 protein from Cyanothece sp. ATCC51142 (wild-type, recombinant) (enzyme)”, for which the stoichiometry N in data set [2] is 2.
With `O=CCCC(=O)O` [succinic semialdehyde], the Km in data set [3] was 8 ± 3 µM.
Regarding `NC(=O)c1ccc[n+]([C@@H]2O[C@H](COP(=O)(O)OP(=O)(O)OC[C@H]3O[C@@H](n4cnc5c(N)ncnc54)[C@H](O)[C@@H]3O)[C@@H](O)[C@H]2O)c1` [NAD^+], the Km in data set [1] (0.02 mM SSA) was 1700 ± 200 µM.

B1: cce4228 protein (succinic semialdehyde dehydrogenase, SSADH) (Crocosphaera subtropica ATCC 51142; S420A) (protein)
chain: T1 sequence (B1WSJ7 1-455) with S420A
notes: full ORF in pET-28a, N-terminal 6xHis kept, E. coli BL21(DE3), Ni-NTA; native ca. 109 kDa
One may read the kcat as the maximal rate divided by the concentration of active sites. Take B1: in “purified protein [4]” (NADP+ as cofactor), the Km stood at 70 ± 10 µM and the kcat worked out at 9.3 ± 0.9 s⁻¹.

B2: cce4228 protein (succinic semialdehyde dehydrogenase, SSADH) (Crocosphaera subtropica ATCC 51142; R139A) (protein)
chain: T1 sequence (B1WSJ7 1-455) with R139A
notes: as for B1
B2: in the data set “purified protein [4]” (NADP+ as cofactor), the Km was found to be 112 ± 8 µM and the kcat was 0.54 ± 0.01 s⁻¹.

B3: cce4228 protein (succinic semialdehyde dehydrogenase, SSADH) (Crocosphaera subtropica ATCC 51142; K154A) (protein)
chain: T1 sequence (B1WSJ7 1-455) with K154A
notes: as for B1
A word on the kcat/Km: it is the second-order rate constant that governs catalysis at low substrate concentration. For the molecule B3, the Km was determined as 6100 ± 1500 µM in the data set “purified protein [5]”, 20 ± 10 µM in the data set “purified protein [4]” (8 mM NADP+) and 1500 ± 400 µM in “purified protein [6]”. The kcat in “purified protein [4]” (8 mM NADP+) was found to be 0.1 ± 0.05 s⁻¹. The kcat/Km in “purified protein [4]” (8 mM NADP+) stood at 5000 M⁻¹ s⁻¹.

B4: cce4228 protein (succinic semialdehyde dehydrogenase, SSADH) (Crocosphaera subtropica ATCC 51142; S157E) (protein)
chain: T1 sequence (B1WSJ7 1-455) with S157E
notes: as for B1
B4: in “purified protein [5]”, the Km was 1100 ± 200 µM. Further, in the data set “purified protein [4]” (10 mM NADP+), the Km turned out to be 2.8 ± 0.7 µM, the catalytic constant (kcat) worked out at 1.5 ± 0.1 s⁻¹ and the catalytic efficiency (kcat/Km) came to 535000 M⁻¹ s⁻¹. The Km in the data set “purified protein [6]” stood at 510 ± 40 µM.

The record behind these values is publication PMC7510979, “Kinetic and structural insights into enzymatic mechanism of succinic semialdehyde dehydrogenase from Cyanothece sp. ATCC51142” (PLoS ONE, 2020).
